# doi:10.1101/2024.10.01.616059 (bioRxiv, 2024)
# Target: the molecule itself
# Experiment: SEC; native whole-cell lysate of NIH3T3 AP1 KO cells on Yarra SEC-2000 (1 kDa to 300 kDa); fractions immunoblotted
protein,measurement,value
"phosphoribosyl pyrophosphate synthetase 2 (PRPS2), mouse, endogenous (enzyme, UniProt Q9CS42 1-318, looked up, PRPS2, mouse, endogenous protein of NIH3T3 cells and mouse tissue; also called P2; source: endogenous, NIH3T3 (parental and CRISPR knockout clones), native lysate; endogenous, C57BL/6 mouse kidney, native lysate) MPNIVLFSGSSHQDLSQRVADRLGLELGKVVTKKFSNQETSVEIGESVRGEDVYIIQSGCGEINDNLMELLIMINACKIASSSRVTAVIPCFPYARQDKKDKSRAPISAKLVANMLSVAGADHIITMDLHASQIQGFFDIPVDNLYAEPAVLQWIRENITEWRNCIIVSPDAGGAKRVTSIADRLNVEFALIHKERKKANEVDRMVLVGDVKDRVAILVDDMADTCGTICHAADKLLSAGATKVYAILTHGIFSGPAISRINSAAFEAVVVTNTIPQEDKMKHCSKIQVIDISMILAEAIRRTHNGESVSYLFSHVPL",stoichiometry N,2
